The target of assay [1] is S. aureus elongation factor G (S. aureus) (UniProt P68790).
The target is the same in assay [2]. This is another data set of the same source.
For assay [3] the target is unchanged. This is another data set of the same source.
Assay [4] shares this target. Description: SEC; 2 nmol EF-G (wild-type or hybrid) with or without 4 nmol FusB (twofold excess) in 100 µl gel filtration buffer (20 mM Tris pH 7.8, 300 mM NaCl) on Superdex200 10/300; shift in elution volume of the EF-G peak as read-out; hybrid G also with 2.5-fold excess of FusB.
The next assay has as its target T1, S. aureus EF-G (Staphylococcus aureus, UniProt P68790).
T1 construct: gene fusA; full-length wild type, recombinant; assayed on E. coli 70S ribosomes with E. coli translation factors
Description: tripeptide (fMet-Phe-Phe) formation, quenched at […] s, HPLC. It is filed as biochemical.

The term stoichiometry N denotes the number of molecules, sites or subunits per partner or assembly. The molecule FusB (natural protein) came in with a multiple- and single-round luciferase synthesis in a reconstituted E. coli transcription-translation system with S. aureus EF-G, FA 20 µM, FusB 1 µM; increase against the reactions with only FA in assay [1] of less than 5 fold. Besides, the extent of tripeptide formation in 10 s with S. aureus EF-G, FA 150 µM (50 per cent with FA alone), FusB 1 µM in assay [2] was determined as 75 per cent. This molecule also returned a rate of splitting of the post-termination complex by S. aureus EF-G and RRF (Rayleigh light scattering) with FA 10 µM and FusB 1 µM (0.15 s^-1 without FA; blocked with FA alone) in assay [3] of 0.02 s⁻¹. Besides, the stoichiometry N in assay [4] is 1.

Usually inhibition stands for the relative decrease from the control value, in per cent. High values mean strong suppression, low ones little suppression. Consider `CC(=O)O[C@H]1C[C@@]2(C)[C@@H](C[C@@H](O)[C@H]3[C@@]4(C)CC[C@@H](O)[C@@H](C)[C@@H]4CC[C@@]32C)/C1=C(\CCC=C(C)C)C(=O)O` [FA, fusidic acid], for which the inhibition at 150 µM on S. aureus EF-G was 50%.

(Values after paper PMC3352095, “Structure and function of FusB: an elongation factor G-binding fusidic acid resistance protein active in ribosomal translocation and recycling” (Open Biology, 2012).)
